Reference: the supplement of paper PMC12764529
± gives the half width of the 95% confidence interval.

What was measured:
[1] = folding stability dG unfold (combined trypsin and chymotrypsin); higher = more stable
Method in brief: (§1)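 Designed mini-proteins (under 80 residues, no cysteine) in a PA-tagged cDNA display construct were digested with trypsin and chymotrypsin. Each protease was used at 11 concentrations (threefold dilutions) plus a no-protease condition, followed by sequencing. K50 was inferred by Bayesian fitting of sequencing counts, and unfolding free energy was derived against a sequence-predicted unfolded-state K50 and a shared folded-state K50, per protease or combined. Only designs with AlphaFold2 dimer inter-PAE above 15 were kept.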

[2] = folding stability dG unfold from trypsin proteolysis; higher = more stable
Method in brief: as §1

[3] = folding stability dG unfold from chymotrypsin proteolysis; higher = more stable
Method in brief: as §1

| Sequence | folding stability dG unfold [1] [kcal/mol] | folding stability dG unfold [2] [kcal/mol] | folding stability dG unfold [3] [kcal/mol] |
| --- | --- | --- | --- |
| SAGGSKTIEVEIKVPPGMTPEEVAKKLAEELKKAGIEVKVVKVEYDEEKGTVRITLDDGSEVELKVSAGGSA [r2_242_TrROS_Hall] | 1.58 ± 0.39 | 1.35 ± 0.093 | 1.98 ± 0.1 |
| SAGGSKTVELEIEIDGKLIKIRVEENENGELTVRIEIYDKNGKKVKEIEIKVKSLEEALKALEKLLSAGGSA [r2_82_TrROS_Hall] | 3.22 ± 0.12 | 3.21 ± 0.12 | 3.22 ± 0.12 |
| SAGGSKVEIWIRFGDYWIRITVEPKPNGRKKVSVEVYNPNGEPMWSITFEIDPDGKIKDIDITPMPSAGGSA [r2_260_TrROS] | 5.01 ± 0.13 | 4.53 ± 0.23 | 5.03 ± 0.14 |
| SAGGSKWIPVSIWFPKGMTPEKVEEIARELVEAGYRIENIEVEREPDPNGREWYRVDITFRPPGDLSAGGSA [r2_442_TrROS] | 2.83 ± 0.18 | 2.71 ± 0.085 | 3.01 ± 0.089 |
| SAGGSKWRMYEITLELGDKPVKITVYYMDGNYSVAIKFPPGRKVDIPFDGPMSPEDAAKKALEALGSAGGSA [r2_92_TrROS] | 3.24 ± 0.095 | 2.34 ± 0.056 | 3.579 ± 0.026 |
| SAGGSKYPIEVTDPENGNPVLLEDVESLASVTQEEPGDGRSLYTATVPETGEPVFLTSPEKLAAALSSAGGS [r8_206_JUSTAS] | 0.384 ± 0.11 | 0.593 ± 0.035 | 0.0753 ± 0.19 |
| SAGGSLIEKIAKEAGIKVEISKEETNGSPVLTITITKGDKNIVFKDDGKDPEKLVKELAKKIGIKPISAGGS [r8_226_JUSTAS] | 0.422 ± 0.19 | 0.499 ± 0.043 | 0.414 ± 0.086 |
| SAGGSLPLPPGATVETTEVDPANPDRTYKTTTTFTPVPGNTLLATPVVTDPETGTTTTTTTTVPLALGSAGG [r13_268_JUSTAS] | 0.64 ± 0.13 | 0.321 ± 0.054 | 0.809 ± 0.15 |
| SAGGSLPPGQWIFMIQLEIEPPNGNTWPFNIMVPPDNVEEQAKEIADRLRENGLKVKIEITDVMPVSAGGSA [r2_274_TrROS] | 3.09 ± 0.13 | 2.22 ± 0.13 | 3.5 ± 0.083 |
| SAGGSLPPSTVIESEIVIEIEIENNISGIPGKTEKAFIIIKVTVTTDENGNLSSSVEIEIIPAKDLSAGGSA [r2_448_TrMRF] | 3.26 ± 0.41 | 3.22 ± 0.23 | 2.97 ± 0.21 |
| SAGGSLSNVTPLGTTPVTLPGSTVTITVYKSDTPGVVYVKIEYPETGVEKVRVLSPEELEKVIEELLSAGGS [r8_469_JUSTAS] | 3.07 ± 0.054 | 2.69 ± 0.071 | 3.199 ± 0.025 |
| SAGGSLVEKVKAIFAEKGIPVNPITTTPTSFTAKTPTGPFTVELPGNSTVTVSPDGTATVTVPPGLSSAGGS [r8_297_JUSTAS] | 1.99 ± 0.21 | 1.41 ± 0.16 | 2.2 ± 0.066 |
| SAGGSLVYRLVLRRGDKVLVVTAPFDSPSDALAAASRLLPGGAELLLEFFDPRTGEPLGTVPFRSVSAGGSA [r2_390_TrMRF] | 2.22 ± 0.034 | 2.257 ± 0.015 | 2.06 ± 0.039 |
| SAGGSMAEPGPMNMTLSFDGIEKEFSVEITVRKRPDGTEVLELRLPDGVPLTLPAAEAAKIVDMSGSAGGSA [r2_297_JUSTAS] | 0.764 ± 0.051 | 0.549 ± 0.023 | 0.879 ± 0.036 |
| SAGGSMEEEFAARGATVTIDPEKGVITVTFYEEVTQPDGTPVLRRKGTLTIEVPGNDPSQALAKALEESAGG [r13_924_JUSTAS] | 1.96 ± 0.12 | 1.41 ± 0.032 | 2.1 ± 0.088 |
| SAGGSMIEVERDPNDPNRYRARLPVIEENPPEPKLVYVDVYVDPENGLVYARAVTEDGGEAEFRFESAGGSA [r2_428_TrMRF] | 0.786 ± 0.17 | 0.448 ± 0.12 | 1.03 ± 0.16 |

| Sequence | folding stability dG unfold [1] [kcal/mol] | folding stability dG unfold [2] [kcal/mol] | folding stability dG unfold [3] [kcal/mol] |
| --- | --- | --- | --- |
| SAGGSMIPLDNIDTIEIYENPKEGKYEAKIYFPSNGKVYVFPEGLLPEIIESTPKIKEIKVIPVPESAGGSA [r2_159_TrMRF] | -0.0295 ± 0.25 | -1.19 ± 0.71 | 0.362 ± 0.26 |
| SAGGSMITFTVTPDATVEFPDGVTVTLIPGEGKWVATAGEKEIEAPYTPLPDDTYVVTLELPEGIAASAGGS [r16_245_JUSTAS] | 0.369 ± 0.13 | 0.337 ± 0.046 | -0.101 ± 0.27 |
| SAGGSMITLTFPAPREVAVPAIEAAAEKHGVTILSVEFDPATGRLTVTVDSSLPEEEVRAMVAAVLASAGGS [r8_338_JUSTAS] | 4.57 ± 0.075 | 4.75 ± 0.24 | 4.47 ± 0.058 |
| SAGGSMIVKVTVRVDGKEYERTVEVESLEEALELELPELPEGAEVRIEVVDPETGELIETVTLRVPSAGGSA [r2_390_TrROS_Hall] | 2.46 ± 0.15 | 2.3 ± 0.13 | 2.56 ± 0.052 |
| SAGGSMKIEKLPDGKTVVIETVDEETNTITRTRFKLDKDGKLVEMEVETITLPAPPPEEVDEDGKESAGGSA [r2_375_TrROS_Hall] | 2.17 ± 0.16 | 1.92 ± 0.098 | 2.3 ± 0.092 |
| SAGGSMKPAKKITFTFPDGRKAEIFFYPEEDTIELRIYFPETGTFVEIPVKSPEDLIETLKKLLAESAGGSA [r2_70_TrMRF] | 3.75 ± 0.16 | 4.02 ± 0.16 | 3.7 ± 0.14 |
| SAGGSMLFLRVRIEVRPPTAEDLAEGKEVKEVEILVEFDSVEELKEALEKLPPNAKVEVELVELEESAGGSA [r2_25_TrROS_Hall] | 2.83 ± 0.53 | 2.36 ± 0.26 | 2.9 ± 0.17 |
| SAGGSMLIKIKLPKNNPLRDKIVEKLKKSPYVKDVKVKRLKELPNYEIFLIEVDGDPKVADEIKKLASAGGS [r16_394_TrMRF] | 2.83 ± 0.15 | 2.16 ± 0.09 | 3.08 ± 0.045 |
| SAGGSMPLDVSSELLEESTDPSDPNRRTTLERRFSPDGTVTLVTRTFDPATGTTEVQETTLPPGLPSAGGSA [r2_73_JUSTAS] | 1.14 ± 0.099 | 0.529 ± 0.06 | 1.49 ± 0.14 |
| SAGGSMPLTLEIKAPASTPASEIVATLKKYGPVTVTLGDGRTYNIPRDKPPNLKGLPLAPDAVLTLVVSAGG [r13_399_JUSTAS] | -0.263 ± 0.091 | -0.08 ± 0.1 | -0.742 ± 0.4 |
| SAGGSMPTLKPDEILTLSSTTEPLPSGGLRGRTVTLKKIPGTGKFVTITKYSYQPPDGPITSATEILLSAGG [r13_263_JUSTAS] | 0.238 ± 0.15 | -0.538 ± 0.48 | 0.585 ± 0.26 |
| SAGGSMPYKTLEESESEIYDPSNGNVKYKVKTETILLPDGTILVKETIYDPETGTTETKTYTIPKGSAGGSA [r2_13_JUSTAS] | 1.79 ± 0.1 | 1.54 ± 0.14 | 1.82 ± 0.13 |
| SAGGSMRLVKITVTTLEPSAEAIAAGAPTPVTLIEREVSSEEEVEEFIKSLPPNVEVSVERLPPPASAGGSA [r2_25_JUSTAS] | 2.04 ± 0.12 | 1.66 ± 0.11 | 2.16 ± 0.03 |
| SAGGSMSLEGVSTVSEEKFPEKPTTLVPLTYPDGTTVEANRTLDPVTGKWTLPVTTPDGTVVVVDESAGGSA [r2_490_JUSTAS] | 0.977 ± 0.089 | 1.34 ± 0.048 | 0.487 ± 0.073 |
| SAGGSMSPWHWARHIAKKLRKKFPPGKKVRIKIEYDDGPVEFEIPPGEWIPIPSNAPIEILNIKVKSAGGSA [r2_391_TrROS] | 2.25 ± 0.11 | 1.97 ± 0.034 | 2.36 ± 0.11 |
